The labels stand for the following.
T1: Cathepsin F (Homo sapiens (Human)) (UniProt Q9UBX1)
T1 sequence: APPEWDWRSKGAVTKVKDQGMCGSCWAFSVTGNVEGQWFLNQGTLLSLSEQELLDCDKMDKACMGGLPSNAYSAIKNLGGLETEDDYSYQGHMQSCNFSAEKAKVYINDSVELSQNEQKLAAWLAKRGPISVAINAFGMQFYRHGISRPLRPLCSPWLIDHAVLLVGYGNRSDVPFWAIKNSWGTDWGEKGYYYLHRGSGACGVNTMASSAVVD

B1: Hex-[Cys(tMeBn(EuDOTA-PP))-Pro-Pro-Thr-Gln-Phe-Cys]-Asp-NH2 (3BP-3661) (peptide)
peptide: CPPTQFCD
modifications: N-terminal hexanoyl (Hex); Cys1 and Cys7 cyclised through tMeBn carrying EuDOTA-PP (europium complex); C-terminal amide
B2: Hex-[Cys(tMeBn(InDOTA-PP))-Pro-Pro-Thr-Gln-Phe-Cys]-Asp-NH2 (3BP-3590) (peptide)
peptide: CPPTQFCD
modifications: N-terminal hexanoyl (Hex); Cys1 and Cys7 cyclised through tMeBn carrying InDOTA-PP (indium complex); C-terminal amide
B3: Hex-[Cys(tMeBn(LuDOTA-PP))-Pro-Pro-Thr-Gln-Phe-Cys]-Asp-NH2 (3BP-3591) (peptide)
peptide: CPPTQFCD
modifications: N-terminal hexanoyl (Hex); Cys1 and Cys7 cyclised through tMeBn carrying LuDOTA-PP (lutetium complex); C-terminal amide
B4: Hex-[Cys(tMeBn(GaDOTA-PP))-Pro-Pro-Thr-Gln-Phe-Cys]-Asp-NH2 (3BP-3592) (peptide)
peptide: CPPTQFCD
modifications: N-terminal hexanoyl (Hex); Cys1 and Cys7 cyclised through tMeBn carrying GaDOTA-PP (gallium complex); C-terminal amide
B5: Cystatin C (protein)
chain: SSPGKPPRLVGGPMDASVEEEGVRRALDFAVGEYNKASNDMYHSRALQVVRARKQIVAGVNYFLDVELGRTTCTKTQPNLDNCPFHDQPHLKRKAFCSFQIYAVPWQGTMTLSKSTCQDA
B6: alpha -dendrotoxin (protein)
chain: QPRRKLCILHRNPGRCYDKIPAFYYNQKKKQCERFDWSGCGGNSNRFKTIEECRRTCIG
B7: Hex-[Cys(tMeBn(GaDOTA-AET))-Pro-Pro-Thr-Gln-Phe-Cys]-OH (3BP-3949) (peptide)
peptide: CPPTQFC
modifications: here or on the partner: N-terminal hexanoyl (Hex); Cys1 and Cys7 cyclised through tMeBn carrying GaDOTA-AET (gallium complex); free C-terminal acid (-OH)
B8: Hex-[Cys(tMeBn(InDOTA-AET))-Pro-Pro-Thr-Gln-Phe-Cys]-OH (3BP-3623) (peptide)
peptide: CPPTQFC
modifications: here or on the partner: N-terminal hexanoyl (Hex); Cys1 and Cys7 cyclised through tMeBn carrying InDOTA-AET (indium complex); free C-terminal acid (-OH)
B9: Hex-[Cys-(tMeBn(ZnDOTA-AET))-Pro-Pro-Thr-Gln-Phe-Cys]-OH (3BP-4343) (peptide)
peptide: Hexanoyl-CPPTQFC-OH
modifications: bridge 1-7; not fully specified (bridges); printed as Hex-[Cys-(tMeBn(ZnDOTA-AET))-Pro-Pro-Thr-Gln-Phe-Cys]-OH; also: zinc complex (ZnDOTA) of 3BP-3554
B10: Hex-[Cys-(tMeBn(CuDOTA-AET))-Pro-Pro-Thr-Gln-Phe-Cys]-OH (3BP-4293) (peptide)
peptide: CPPTQFC
modifications: here or on the partner: N-terminal hexanoyl (Hex); Cys1 and Cys7 cyclised through tMeBn carrying CuDOTA-AET (copper(II) complex); free C-terminal acid (-OH)
B11: Hex-[Cys(tMeBn(EuDOTA-AET))-Pro-Pro-Thr-Gln-Phe-Cys]-OH (3BP-3662) (peptide)
peptide: CPPTQFC
modifications: here or on the partner: N-terminal hexanoyl (Hex); Cys1 and Cys7 cyclised through tMeBn carrying EuDOTA-AET (europium complex); free C-terminal acid (-OH)
B12: Hex-[Cys(tMeBn(LuDOTA-AET))-Pro-Pro-Thr-Gln-Phe-Cys]-OH (3BP-3624) (peptide)
peptide: CPPTQFC
modifications: here or on the partner: N-terminal hexanoyl (Hex); Cys1 and Cys7 cyclised through tMeBn carrying LuDOTA-AET (lutetium complex); free C-terminal acid (-OH)

Bridge positions count the residues as written; N and C are the ends. * marks the point of attachment. Hexanoyl = CCCCCC(=O)*

This note sets out measurements from US12427210B2, “Compounds comprising a fibroblast activation protein ligand and use thereof” (priority 2019, dated 2025).

The term Ki denotes a measure of affinity in units of concentration, obtained from inhibition or displacement. A lower Ki goes with tighter binding.

The target of the first assay is Recombinant human FAP (R&D systems, #3715-SE) (human).
Recombinant human FAP (R&D systems, #3715-SE) (human), sequence (chain, as listed by the source limits assumed): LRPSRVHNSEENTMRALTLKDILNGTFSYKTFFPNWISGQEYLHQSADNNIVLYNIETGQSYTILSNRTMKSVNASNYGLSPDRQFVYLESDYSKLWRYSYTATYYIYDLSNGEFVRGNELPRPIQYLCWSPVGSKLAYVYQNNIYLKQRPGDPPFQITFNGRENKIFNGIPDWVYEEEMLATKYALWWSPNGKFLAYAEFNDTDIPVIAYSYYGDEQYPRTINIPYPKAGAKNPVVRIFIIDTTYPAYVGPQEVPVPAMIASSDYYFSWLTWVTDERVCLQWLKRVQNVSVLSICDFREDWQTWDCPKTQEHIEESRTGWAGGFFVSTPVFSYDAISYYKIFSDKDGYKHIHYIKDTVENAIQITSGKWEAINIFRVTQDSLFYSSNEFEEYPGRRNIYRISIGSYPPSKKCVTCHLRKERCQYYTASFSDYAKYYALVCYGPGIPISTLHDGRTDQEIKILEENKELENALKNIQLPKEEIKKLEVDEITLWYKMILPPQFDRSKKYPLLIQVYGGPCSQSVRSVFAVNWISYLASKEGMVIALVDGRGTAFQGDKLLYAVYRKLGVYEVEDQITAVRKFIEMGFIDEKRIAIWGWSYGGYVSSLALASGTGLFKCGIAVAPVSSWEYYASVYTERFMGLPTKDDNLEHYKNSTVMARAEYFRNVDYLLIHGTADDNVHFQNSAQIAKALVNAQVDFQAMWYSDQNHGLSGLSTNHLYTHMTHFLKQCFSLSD
Test: not given
Settings: not given
In the case of B1, the pIC50 Category (Activity) is more than 8 pIC50. On the same count and under the same terms, to B2 belongs more than 8 pIC50; to B3, more than 8 pIC50. As to B4, the pIC50 Category (Activity) was more than 8 pIC50.

Another assay deals with T1, Cathepsin F (Homo sapiens (Human)).
Test: not given
Settings: not given
Take B5: the Percentage inhibition (%), Reference (% inhibition at 1 µM) was 74.

The target of the next assay is KV channel. The assay can be described thus: radioligand displacement, reference compound of the assay (Ki Ref).
Settings: not given
(Loss of bound radioactivity is the signal in a displacement assay; it reports binding, not function.)
B6 gave a Ki of 0.097 nM.

The target of the next assay is human fibroblast activation protein (FAP) on human WI-38 fibroblasts (human). The assay can be described thus: competitive FACS binding on FAP-expressing WI-38 cells against 3 nM Cy5-labeled compound; category A = pIC50 values >8.0. The conditions noted are these: remark: other sources report otherwise. On the technique in general: Flow cytometry measures light scatter and fluorescence of single cells or particles in a stream.
The molecule B7 came in with a pIC50 Category (FACS) of more than 8 pIC50. B8 returned a pIC50 Category (FACS) of more than 8 pIC50.

B9 yielded a pIC50 Category (FACS) of more than 8 pIC50. Still for that read-out and setting: to B10 belongs more than 8 pIC50; to B11, more than 8 pIC50; to B12, more than 8 pIC50.
